For five sequences, Kd results are on record in paper PMC9927260.

For the data set, the system named is IBV H120 whole virus (target protein not identified) (Infectious bronchitis virus, live vaccine strain H120). Nature of the data set: direct ELAA.
One may read the Kd as a measure of binding affinity in units of concentration. A low value points to a tighter complex. “CACGTCTCTCTATTCGCTCCCTTCGCTAATTGTTCTCTCC [Apt_IBV02]” gave a Kd of 58.2 nM.
On to “CAGACTTTGTTCAGCTCCTCGACTCTTCATTCCCTCCCTT [Apt_IBV03]”, for which the Kd turned out to be 109 nM.
For “CCAGTATCATCCCTATCGTAGTCCTCAACAACCCCCTACA [Apt_IBV04]”, the dissociation constant (Kd) is 99.9 nM.
For the sequence “CCCCAATCACAGTTAATCCTCGTTCCTATATCTCCCACAC [Apt_IBV01]”, the Kd stood at 99.2 nM.
As for “GACTTCCCTCTTTGTGTGTCATTCGGTGTTCTCGCTTTTG [Apt_IBV05]”, the Kd was determined as 59.4 nM. This Kd lies about 1.7-fold lower than the previous one.
